Here are results for 167 variants from the RNAGym collection of RNA variant scans (doi:10.7554/elife.80360).

B1: Twister Ribozyme (parent)
chain: AACACUGCCAAUGCCGGUCCCAAGCCCGGAUAAAAGUGGAGGGGGCGG

Variants of B1 are the subject of the data set. Kind of data set: self-cleavage, relative activity (ratio to wild type); higher = more cleavage; co-transcriptional.
Regarding A1U G41U, the self-cleavage is 0.0585.
The same measure for A4G A32G: 1.05; for C8A G36A: 0.101; for U6C A23U: 0.0534.
As for A11U G24C, the self-cleavage stood at 0.0932.
The same measure for U6C G39U: 0.114; for A23C G24C: 0.124.
In the case of U31A G48C, the self-cleavage amounted to 1.19.
As to A1U C25G, the self-cleavage was 0.0576.
U12G A30U: the self-cleavage stood at 0.812.
With A2G G29U the figure was 0.344.
The same measure for C8U G29C: 0.117.
On to G13A C15A, for which the self-cleavage amounted to 0.46.
As for C25A A40G, the self-cleavage was determined as 0.0786.
With A1C G28C the figure was 0.155.
With C27G G41U the figure was 0.0753; with A32C G38C, 0.89.
Turning to A10G G38A, the self-cleavage is 0.89.
Consider G43C G44A, for which the self-cleavage is 0.469.
With U18C A40U, the self-cleavage is 0.113.
Take A10C A35G: the self-cleavage is 0.965.
The same measure for C25U C27A: 0.509.
Regarding G28U G42U, the self-cleavage was 0.238.
The same measure for A1G A33C: 0.462; for C9U A10G: 0.872.
Regarding C27G A30U, the self-cleavage is 0.0941.
Consider C9U G16C, for which the self-cleavage was found to be 0.13.
On to C14G G36A, for which the self-cleavage stood at 0.0659.
For C19G G24U, the self-cleavage is 0.0534.
In the case of C9G G38C, the self-cleavage came out at 0.4.
With G7U A22C the figure was 0.11; with G29C A40U, 0.101; with G29U G41U, 0.521.
The same measure for C27U G45A: 0.819; for A2G A33G: 0.442.
With C14A G29C the figure was 0.947; with C3A C9G, 0.217.
On to G17U U37A, for which the self-cleavage came to 0.092.
Take U6G G48A: the self-cleavage was 0.24.
With G28A C46U the figure was 0.918; with C19A C26G, 0.0718; with C5A G45C, 0.16.
The same measure for A32C G41U: 0.603; for U18G A30G: 0.0594.
The same measure for U18G A30C: 0.14.
As for C21A A33G, the self-cleavage was 0.0711.
The same measure for A4G A30U: 0.762.
For the variant C25U A35U, the self-cleavage was determined as 0.764.
With C14A G28U the figure was 0.854; with C3A G38U, 0.191; with C9G U37G, 0.327.
With C21A A22G, the self-cleavage stood at 0.101.
For C21A A22C, the self-cleavage is 0.101.
The same measure for C27G G38U: 0.093.
The same measure for C3U C25A: 0.0634; for G13A A34G: 0.635.
The same measure for A10U A23C: 0.182.
Turning to C5G G28U, the self-cleavage is 0.279.
Turning to C3A G43C, the self-cleavage amounted to 0.0669.
The same measure for A30C A35G: 0.38; for A4G G45U: 0.741; for G17A C26A: 0.78.
With U18C U37C the figure was 0.0756.
With C14G G47A the figure was 0.0923.
Regarding A11U C20G, the self-cleavage turned out to be 0.17.
With C19G A32C the figure was 0.386; with G17A G38C, 0.54; with C3U A32C, 0.532.
For the variant G13A A30U, the self-cleavage stood at 0.899.
Consider C26G G45U, for which the self-cleavage was 0.156.
With U12A C20U the figure was 1.15.
With U18C G47U the figure was 0.288; with C20U G43C, 0.125; with C14A U31C, 0.913.
As to C14A G47C, the self-cleavage came out at 0.44.
With A2C G24C, the self-cleavage came to 0.0423.
On to U6C G42U, for which the self-cleavage was 0.107.
Take A10U C15U: the self-cleavage worked out at 0.911.
The same measure for G7U G28A: 0.0571.
With A1U G36U the figure was 0.0701; with C15A C25A, 0.0919.
Turning to C3U C8G, the self-cleavage amounted to 0.0577.
G29U G48C: the self-cleavage was 1.11.
Regarding A2U G16U, the self-cleavage came to 0.309.
Regarding C14U A23G, the self-cleavage stood at 0.666.
As for C26G G48U, the self-cleavage was determined as 0.146.
With C19A A40G, the self-cleavage was 0.124.
On to A34C A35G, for which the self-cleavage came out at 0.212.
C3A G7A: the self-cleavage came out at 0.0709.
For the variant U37G G45A, the self-cleavage stood at 0.544.
Turning to C14U A34C, the self-cleavage is 0.461.
With G43U G48C the figure was 0.205; with G43U G48U, 0.198.
The same measure for G39U G45A: 0.151; for C14U C19G: 0.518; for A30G A33G: 0.806.
With A10U A32G the figure was 0.896; with G28C G47A, 0.28; with C15U G45A, 0.924.
As to C14U G44A, the self-cleavage turned out to be 1.08.
Consider U12C G42A, for which the self-cleavage is 0.42.
Consider C26A C27A, for which the self-cleavage was found to be 0.173.
The same measure for C15U G42A: 0.204; for A23U C25G: 0.0583; for A30U A40U: 0.152.
In the case of C27U U37G, the self-cleavage came out at 0.342.
As to C9G G47C, the self-cleavage stood at 0.186.
The same measure for A22U G28U: 0.736; for U12C G43A: 0.243; for A23G G48U: 0.354.
The same measure for A23G G48C: 0.516.
With A10G U37A the figure was 0.805; with C19A G36C, 0.0909.
In the case of C8U A10G, the self-cleavage was 0.655.
As for G28A G44U, the self-cleavage was 0.874.
Take C21G G24A: the self-cleavage is 0.0681.
The same measure for C8G C14G: 0.0524; for A32G A34G: 0.679.
The same measure for C21U A30G: 0.097; for A22G G41A: 0.0888; for C21A A32C: 0.169.
Turning to G28U G47C, the self-cleavage worked out at 0.287.
With G28C U37G, the self-cleavage came to 0.144.
The same measure for G29A C46G: 0.838.
Take C27G G39C: the self-cleavage amounted to 0.105.
With C3G U12C the figure was 0.447; with A4C A22G, 0.0686; with C25U G39A, 0.141.
The same measure for G42U G44C: 0.202.
As for U12A C19U, the self-cleavage was 0.882.
For the variant C8U C14U, the self-cleavage was found to be 0.791.
The same measure for A22C C27U: 0.901; for C9A A40G: 0.129.
Consider A34G A35U, for which the self-cleavage was determined as 0.92.
With A22G A35G the figure was 0.138; with G24U G45U, 0.091.
As to U12G C26A, the self-cleavage stood at 0.589.
As for U12C G38A, the self-cleavage was found to be 0.929.
The same measure for A1C C5G: 0.227; for G17U G39A: 0.119.
A1U G17A: the self-cleavage came to 0.0711.
The same measure for A4G G42U: 0.195; for G13A G39A: 0.202.
The same measure for G7A U12C: 0.455.
The same measure for G7A U12G: 0.381; for C8A G41A: 0.175.
In the case of G17U U31A, the self-cleavage came to 0.471.
With C26A G38C, the self-cleavage is 0.395.
The same measure for A10U G29U: 0.939; for C25A G39C: 0.0833; for A23G G28U: 0.184.
With A30U A34C the figure was 0.17; with C9U A30C, 0.526; with C19G C27U, 0.131.
On to C5A C27U, for which the self-cleavage turned out to be 0.249.
With A30C the figure was 0.911; with G13A U37A, 0.209; with U18A G44U, 0.543.
Turning to C14G A32G, the self-cleavage was 0.117.
With C5A A35U the figure was 0.508; with A4G C27G, 0.0421.
The same measure for C15G C19G: 0.0636; for A11G G29C: 0.679.
With A23C G45C, the self-cleavage worked out at 0.125.
Consider C5A C46G, for which the self-cleavage came out at 0.689.
Consider C9A C27U, for which the self-cleavage came out at 0.304.
With A11U U18A the figure was 1.
